One molecule from US20250230210A1 (PARTNER THERAPEUTICS, published 2025) can be followed below.

Assay [1] concerns the target T1, human serum albumin (human, UniProt P02768 25-609).
T1 construct: also called HSA; Human Albumin
The experiment in a line: BLI, Octet 384, VHH-Fc on AHC sensor, albumin in solution; VHH-Fc on AHC sensor, monomeric human albumin in solution; pH of Table 5 not stated. In general terms: In BLI a coated tip is dipped into the sample, and binding shifts an interference pattern.

Assay [2] deals with T1, human serum albumin. The assay can be described thus: BLI, VHH-Fc on sensor, human albumin in solution, pH 5.5, 30 C, 1:1 model.
Description: (§1) To assess binding to albumin, the VHH were cloned onto a human IgG1 Fc and hinge for ease of purification and analysis. […] The VH-Fc constructs were loaded onto AHC sensors prior to exposure to the monomeric targets human, mouse or rhesus albumin in solution for association and then dissociation in buffer solution (Table 5 and FIGS. 5A-C).
(§2) To determine the dissociation constant, the binding reaction and dissociation were performed at the described pH. Data acquisition was performed at 30° C.
(§3) Data (time and response units) was analyzed using the ForteBio Data Analysis Software. The data was fit to a 1:1 binding model to calculate an association (Kon) and dissociation rate (Koff), and KD was calculated using the ratio kd/ka.
Assay [3] concerns the target T1, human serum albumin. The assay can be described thus: BLI, VHH-Fc on sensor, human albumin in solution, pH 6.5, 30 C, 1:1 model.
Description: as §1, §2, §3
In assay [4] the target is T1, human serum albumin. The experiment in a line: BLI, VHH-Fc on sensor, human albumin in solution, pH 7.0, 30 C, 1:1 model.
Description: as §1, §2, §3
For the next assay, the target named is T2, Mouse Albumin (mouse, UniProt P07724 25-608).
T2 construct: also called murine albumin
The assay can be described thus: BLI, Octet 384, VHH-Fc on AHC sensor, albumin in solution.

Another assay concerns the target T3, Rhesus albumin (rhesus monkey, UniProt Q28522 17-600).
T3 construct: also called rhesus monkey albumin
The assay is described as above.

Assay [5] addresses T1, human serum albumin. The description is as above.
Description: (§4) To assess binding, the VHH were cloned onto a human IgG1 Fc and hinge for ease of purification and analysis. […] The VHH-Fc constructs were loaded onto AHC sensors prior to exposure to the monomeric targets, human, mouse or rhesus albumin in solution to determine association and dissociation. In the case of the pH assessment, the binding reaction and dissociation buffer were at the described pH. Data acquisition was performed at 30° C.
as §1
Assay [6] has as its target T1, human serum albumin. The experiment in a line: BLI, VHH-Fc on sensor, human albumin in solution, pH 6.0, 30 C, 1:1 model.
Description: as §1, §2, §3

Description for Mouse Albumin: as §4, §1
Description for Rhesus albumin: as §4, §1

B1: VHH-Fc construct (anti-albumin VHH cloned onto a human IgG1 Fc and hinge) (Fc fusion)
chain: EVQLLESGGGLVQPGGSLRLSCAASGETLDYYAIGWFRQAPGKEREGVSCIASSGGSTNYADSVKGRFTISRDNSKNTVYLQMNSLKPEDTAVYYCAAAVLECRTVVRGYDYWGQGTQVTVSS
notes: also called VH-Fc constructs; not shown: human IgG1 hinge and Fc
Broadly, the Kd is the constant that tells how readily two partners part at equilibrium. Read a high Kd as lower affinity. Take B1: the dissociation constant Kd was determined as 159 nM with human serum albumin [1]; 12.3 nM with human serum albumin [2]; 8.2 nM in the assay with human serum albumin [3]; 6.63 nM with human serum albumin [4]; 10.4 nM in the assay with Mouse Albumin; 66.2 nM with Rhesus albumin. Further, the affinity with human serum albumin [6], expressed as Kd, was 3.81 nM. Besides, the Response was 0.507 with Mouse Albumin, 0.34 with Rhesus albumin and 0.178 with human serum albumin [5].
